Data taken from patent US20230011916A1, “METHODS OF CANCER TREATMENT USING ANTI-OX40 ANTIBODIES IN COMBINATION WITH PI3 KINASE DELTA INHIBITORS” (BEIGENE, LTD., priority 2019, published 2023).

Target: mouse OX40-His (Cat: ab221028, Abcam) (mouse) (UniProt P47741)
Test: ELISA on coated mouse OX40-His

Chain of mouse OX40-His (Cat: ab221028, Abcam) (mouse) (P47741 20-211 limits assumed): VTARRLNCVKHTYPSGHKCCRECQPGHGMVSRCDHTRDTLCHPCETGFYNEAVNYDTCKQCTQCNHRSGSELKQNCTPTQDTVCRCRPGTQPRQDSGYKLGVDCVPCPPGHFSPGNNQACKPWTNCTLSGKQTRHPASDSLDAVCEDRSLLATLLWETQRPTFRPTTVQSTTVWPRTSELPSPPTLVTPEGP

- EC50: 0.11 µg/mL
B1: 1A7.gr1 (antibody, from another filing, V domains shown)
VH: EVQLVQSGAEVKKPGASVKVSCKASGYTFTDSYMSWVRQAPGQGLEWIGDMYPDNGDSSYNQKFRERVTITRDTSTSTAYLELSSLRSEDTAVYYCVLAPRWYFSVWGQGTLVTVSS
VL: DIQMTQSPSSLSASVGDRVTITCRASQDISNYLNWYQQKPGKAPKLLIYYTSRLRSGVPSRFSGSGSGTDFTLTISSLQPEDFATYYCQQGHTLPPTFGQGTKVEIK
